Earlier results as cited in PMC3742252.
pKd: −log10 of the molar value.

Target: TSH (Bos taurus) (UniProt P01217)

thyroid-stimulating hormone receptor (from UniProt Q8SPP9)
pKd: 9.00
